Test results from PMC10397247.

Experiments:
4H2504-AA = biological target: T1, 4H2504-AA; assay: two-hybrid library CCmax;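 note: natural log of median RNA to DNA barcode read ratio; higher means stronger binding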
T1 chain: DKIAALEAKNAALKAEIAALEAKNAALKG

4H3001-AA = biological target: T2, 4H3001-AA; assay: two-hybrid library CCmax; settings: mean of both orientations;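 note: natural log of median RNA to DNA barcode read ratio; higher means stronger binding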
T2 chain: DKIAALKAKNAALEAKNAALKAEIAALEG

4H2592-AA = biological target: T3, 4H2592-AA; assay: two-hybrid library CCmax;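 note: natural log of median RNA to DNA barcode read ratio; higher means stronger binding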
T3 chain: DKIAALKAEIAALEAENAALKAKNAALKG

4H3493-AA = biological target: T4, 4H3493-AA; assay: two-hybrid library CCmax; settings: mean of both orientations;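 note: natural log of median RNA to DNA barcode read ratio; higher means stronger binding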
T4 chain: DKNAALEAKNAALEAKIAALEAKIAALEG

4H347-AA = biological target: T5, 4H347-AA; assay: two-hybrid library CCmax; settings: mean of both orientations;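 note: natural log of median RNA to DNA barcode read ratio; higher means stronger binding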
T5 chain: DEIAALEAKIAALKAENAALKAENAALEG

4H376-AA = biological target: T6, 4H376-AA; assay: two-hybrid library CCmax; settings: mean of both orientations;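 note: natural log of median RNA to DNA barcode read ratio; higher means stronger binding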
T6 chain: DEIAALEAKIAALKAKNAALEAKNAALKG

4H688-AA = biological target: T7, 4H688-AA; assay: two-hybrid library CCmax; settings: mean of both orientations
T7 chain: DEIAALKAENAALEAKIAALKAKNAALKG

4H963-AA = biological target: T8, 4H963-AA; assay: two-hybrid library CCmax; settings: mean of both orientations
T8 chain: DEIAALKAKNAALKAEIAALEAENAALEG

4H2611-AA = biological target: T9, 4H2611-AA; assay: two-hybrid library CCmax; settings: mean of both orientations
T9 chain: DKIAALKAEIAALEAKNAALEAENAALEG

4H3340-AA = biological target: T10, 4H3340-AA; assay: two-hybrid library CCmax
T10 chain: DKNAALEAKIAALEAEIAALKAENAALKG

4H2774-AA = biological target: T11, 4H2774-AA; assay: two-hybrid library CCmax; settings: mean of both orientations
T11 chain: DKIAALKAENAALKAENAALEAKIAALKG

4H406-AA = biological target: T12, 4H406-AA; assay: two-hybrid library CCmax; settings: mean of both orientations
T12 chain: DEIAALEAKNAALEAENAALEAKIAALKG

4H3381-AA = biological target: T13, 4H3381-AA; assay: two-hybrid library CCmax; settings: mean of both orientations
T13 chain: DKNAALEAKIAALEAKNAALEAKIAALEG

4H3112-bH = biological target: T14, 4H3112-bH; assay: two-hybrid library CCNG1
T14 chain: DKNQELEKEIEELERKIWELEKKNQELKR

4H953-bA = biological target: T15, 4H953-bA; assay: two-hybrid library CCNG1
T15 chain: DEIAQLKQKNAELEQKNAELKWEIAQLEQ

4H2697-bA = biological target: T16, 4H2697-bA; assay: two-hybrid library CCNG1
T16 chain: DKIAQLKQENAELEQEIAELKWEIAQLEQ

4H855-bA = biological target: T17, 4H855-bA; assay: two-hybrid library CCNG1
T17 chain: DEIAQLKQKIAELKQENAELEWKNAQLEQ

4H918-bA = biological target: T18, 4H918-bA; assay: two-hybrid library CCNG1
T18 chain: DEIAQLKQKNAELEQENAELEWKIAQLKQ

4H2702-bA = biological target: T19, 4H2702-bA; assay: two-hybrid library CCNG1
T19 chain: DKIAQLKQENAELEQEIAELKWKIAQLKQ

4H2673-bA = biological target: T20, 4H2673-bA; assay: two-hybrid library CCNG1
T20 chain: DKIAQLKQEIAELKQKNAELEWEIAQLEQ

4H754-bA = biological target: T21, 4H754-bA; assay: two-hybrid library CCNG1
T21 chain: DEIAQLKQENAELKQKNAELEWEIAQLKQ

4H3926-bA = biological target: T22, 4H3926-bA; assay: two-hybrid library CCNG1
T22 chain: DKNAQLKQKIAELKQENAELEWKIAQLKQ

4H3427-bA = biological target: T23, 4H3427-bA; assay: two-hybrid library CCNG1
T23 chain: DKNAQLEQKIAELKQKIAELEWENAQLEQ

4H3112-bA = biological target: T24, 4H3112-bA; assay: two-hybrid library CCNG1
T24 chain: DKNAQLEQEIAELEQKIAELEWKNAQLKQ

4H346-bA = biological target: T25, 4H346-bA; assay: two-hybrid library CCNG1
T25 chain: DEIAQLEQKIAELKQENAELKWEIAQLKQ

4H4073-bA = biological target: T26, 4H4073-bA; assay: two-hybrid library CCNG1
T26 chain: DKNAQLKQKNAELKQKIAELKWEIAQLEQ

4H1831-bA = biological target: T27, 4H1831-bA; assay: two-hybrid library CCNG1
T27 chain: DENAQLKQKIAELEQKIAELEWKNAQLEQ

4H2586-bA = biological target: T28, 4H2586-bA; assay: two-hybrid library CCNG1
T28 chain: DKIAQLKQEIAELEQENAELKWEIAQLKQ

4H968-bA = biological target: T29, 4H968-bA; assay: two-hybrid library CCNG1
T29 chain: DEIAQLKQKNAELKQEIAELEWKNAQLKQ

4H2627-bA = biological target: T30, 4H2627-bA; assay: two-hybrid library CCNG1
T30 chain: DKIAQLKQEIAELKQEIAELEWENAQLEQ

4H457-bA = biological target: T31, 4H457-bA; assay: two-hybrid library CCNG1
T31 chain: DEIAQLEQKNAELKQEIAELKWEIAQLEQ

4H575-bA = biological target: T32, 4H575-bA; assay: two-hybrid library CCNG1
T32 chain: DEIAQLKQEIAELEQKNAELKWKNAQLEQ

4H3010-bA = biological target: T33, 4H3010-bA; assay: two-hybrid library CCNG1
T33 chain: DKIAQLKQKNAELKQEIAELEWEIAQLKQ

4H780-bA = biological target: T34, 4H780-bA; assay: two-hybrid library CCNG1
T34 chain: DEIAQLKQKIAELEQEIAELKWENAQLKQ

4H683-bA = biological target: T35, 4H683-bA; assay: two-hybrid library CCNG1
T35 chain: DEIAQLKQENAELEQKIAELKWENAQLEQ

4H797-bA = biological target: T36, 4H797-bA; assay: two-hybrid library CCNG1
T36 chain: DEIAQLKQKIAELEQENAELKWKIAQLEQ

4H932-bA = biological target: T37, 4H932-bA; assay: two-hybrid library CCNG1
T37 chain: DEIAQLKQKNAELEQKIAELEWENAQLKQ

4H949-bA = biological target: T38, 4H949-bA; assay: two-hybrid library CCNG1
T38 chain: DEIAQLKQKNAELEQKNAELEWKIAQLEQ

P1bHq = biological target: T39, P1bHq; assay: two-hybrid library CCNG1
T39 chain: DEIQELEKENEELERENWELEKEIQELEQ

4H3907-bH = biological target: T40, 4H3907-bH; assay: two-hybrid library CCNG1
T40 chain: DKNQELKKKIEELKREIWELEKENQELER

4H4038-bH = biological target: T41, 4H4038-bH; assay: two-hybrid library CCNG1
T41 chain: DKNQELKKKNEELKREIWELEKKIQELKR

4H3601-bH = biological target: T42, 4H3601-bH; assay: two-hybrid library CCNG1
T42 chain: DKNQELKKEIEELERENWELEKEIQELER

4H797-bH = biological target: T43, 4H797-bH; assay: two-hybrid library CCNG1
T43 chain: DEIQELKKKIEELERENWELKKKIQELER

B1: 4H2504-AA (peptide)
chain: DKIAALEAKNAALKAEIAALEAKNAALKG
4H2504-AA
  interaction score: -0.729
4H3001-AA
  interaction score: -1.38
4H2592-AA
  interaction score: -1.07
4H3493-AA
  interaction score: -1.14
4H347-AA
  interaction score: -1.77
4H376-AA
  interaction score: -1.78
4H688-AA
  interaction score: 0.978
4H963-AA
  interaction score: -0.737
4H2611-AA
  interaction score: -2.59
4H3340-AA
  interaction score: -1.51
4H2774-AA
  interaction score: -1.42
4H406-AA
  interaction score: 0.644
4H3381-AA
  interaction score: -0.947

B2: 4H1831-bA (peptide)
chain: DENAQLKQKIAELEQKIAELEWKNAQLEQ
4H3112-bH
  interaction score: -0.386
4H953-bA
  interaction score: -0.824
4H2697-bA
  interaction score: -1.55
4H855-bA
  interaction score: 0.246
4H918-bA
  interaction score: -0.817
4H2702-bA
  interaction score: -0.589
4H2673-bA
  interaction score: 0.133
4H754-bA
  interaction score: -0.649
4H3926-bA
  interaction score: -0.904
4H3427-bA
  interaction score: 0.113
4H3112-bA
  interaction score: 0.716
4H346-bA
  interaction score: -0.307
4H4073-bA
  interaction score: -0.475
4H1831-bA
  interaction score: 0.937
4H2586-bA
  interaction score: -0.446
4H968-bA
  interaction score: -0.46
4H2627-bA
  interaction score: 1.11
4H457-bA
  interaction score: -0.519
4H575-bA
  interaction score: -0.581
4H3010-bA
  interaction score: 0.376
4H780-bA
  interaction score: -1.1
4H683-bA
  interaction score: -1.5
4H797-bA
  interaction score: -0.44

B3: 4H932-bA (peptide)
chain: DEIAQLKQKNAELEQKIAELEWENAQLKQ
4H932-bA
  interaction score: 0.694
4H949-bA
  interaction score: -0.925
P1bHq
  interaction score: -0.886

B4: 4H3601-bH (peptide)
chain: DKNQELKKEIEELERENWELEKEIQELER
4H3907-bH
  interaction score: -0.759
4H4038-bH
  interaction score: -1.44
4H3601-bH
  interaction score: -1.34
4H797-bH
  interaction score: -1.38
